test: soluble on expression in E. coli; label from the status in PepcDB or PDB records

| Sequence | soluble on expression in E. coli |
| --- | --- |
| MGSDKIHHHHHHMGAKKNFVLDTNVILHDYKCIENFQENDIYLPIVVLEELDKFKKGSEQINYNAREFVRELDLLTSNDLFLKGASLGPGKGTLYIVTGDKYQEKIAHSFPDKTPDHRILSCALTIAEKNPKIKTTLVSKDVNLRMKARSLGIPVEDYITDKVVNVDIFERAQETYENIDPDLIDKIYSSPEGVDADSLDIKSKLDPNECFILKSVRNSVLARYNPFTDKIKKVDKGTNFGIQPRNAEQSFAFEVLNDPNIKLVGLTGKAGTGKTLLALASALKQAGTYKQILLARPIVALANKDLGFLPGDEKQKVAPYMQPLFDNLNVIKTQFAPGNPDVRKIDDMQKNNQLVIEALAFIRGRSLSETYCIIDEAQNLTPHEIKTIITRAGEGTKMVFTGDIQQIDSPYLDAQSNGLAYMIDKMKGQDLFAHINLIKGERSELSELASDLL | not soluble |
| PTIFEERHLKYISQLGKGNFGSVELCRYDPLGDNTGALVAVKQLQHSGPDQQRDFQREIQILKALHSDFIVKYRGVSYGPGRPELRLVMEYLPSGCLRDFLQRHRARLDASRLLLYSSQICKGMEYLGSRRCVHRDLAARNILVESEAHVKIADFGLAKLLPLDKDYYVVREPGQSPIFWYAPESLSDNIFSRQSDVWSFGVVLYELFTYCDKSCSPSAEFLRMMGCERDVPALCRLLELLEEGQRLPAPPACPAEVHELMKLCWAPSPQDRPSFSALGPQLDMLWSGSR | soluble |
| MSLGEHLEFDEKKIEKIMMIKRSYLNGEISLEEAKIKMQASFDQVTAQEFAICEQYLQKYGISDDVLAERMEEIIEIFDGVLVTTKLNLPSGHPIRTYLDEVDAIRRILGEMREMSKKKFIKNQWAQYYDQLGEINIHFARKQNQLFTALEKKGFDKPSKVMWTLDNNIRDMIKKAKEYLETDQDNAFLEIQDEVIEMVEDMMVKEEEILFPTTMDLLTDEDFIEMRKGDDEIGYCLIDSPLPYGKKENKDTDTSSNNELLKDLANVLQKHGMLTKASNDEVLDVSQGKLTLEQINLLFKHLQVDLSFVDENEIVKFYSDTKHRVFPRSAGVIGREVQNCHPRESVHTVEEIIRAFRAGEHDEAEFWLEMGGKFIYIIYNAVRDEDGNFKGVLEMMQDVTKIRSLTGSQRLLSWGDKEEEPKSKVTEHTGIENEYGITKETIIGDLVKEYPFIKEFLFNLSPKFSKLQNPIVFKTMSSIATVEMISEKGGFEVQDLIDRIVKEIQSRKEGHHHHHH | soluble |
| MKTRKIPLRKSVVSNEVIDKRDLLRIVKNKEGQVFIDPTGKANGRGAYIKLDNAEALEAKKKKVFNRSFSMEVEESFYDELIAYVDHKVKRRELGLE | soluble |
| MGSDKIHHHHHHMSTTASIENIDYWRHPSLSGIELSQAEFTHFSFDKHVHLDYHLGVVTQGAQQFVNKGSYYQLGQHSLSTLNPDDTHDGQSRDAEGYRVKVMSIPVEYMNEVSQELGLKEHFFSAPMVDDALLYHYFIHLHELLIQGQVTALASESHLFNFIQLLLRRHPSGILKCNSPQGLSTLQLGLVKQRMHDEPWHNTQLETLAGEVNLSKFQFLRQFKQATGMTPHAYLKRVRLELAKKSLCHGTLVADVAQQLGFFDQSHLNKAFKQAFLLSPVQFQRRML | not soluble |
| MATTCQKRRYGTFRTGISKPGLSTRRFQHRDFSHGDFGTGTFRTAVSPPLTFSSPPTSTVATPYFPMRFINVKSHVSRPPPLHGDIPIGHEGTRVSRHVDDRCGLVVVSRHGRAGGCLSRLEHHHHHH | not soluble |
| ENSLIGLNDHTLVTEDDGRRWVTHEPALVYFHNKYWFNIIAMIRNDGVSYYCNLASPYVMDKEALKYIDYDLDIKVLTNGTKHLLDADEYIAHGQLWNYP | not soluble |
| STTEVVMENVTAFWEEGFGELFEKAKQNNNNRKTSNGDDSLSFSNFSLLGTPVLKDINFKIERGQLLAVAGSTGAGKTSLLMMIMGELEPSEGKIKHSGRISFCSQNSWIMPGTIKENIIFGVSYDEYRYRSVIKACQLEEDISKFAEKDNIVLGEGGITLSGGQRARISLARAVYKDADLYLLDSPFGYLDVLTEKEIFESCVCKLMANKTRILVTSKMEHLKKADKILILHEGSSYFYGTFSELQNERPDFSSKLMGCDSFDQFSAERRNSILTETLHRFSLEGDAPVSENLYFQGDKDCEMKRTTLDSPLGKLELSGCEQGLHEIKLLGKGTSAADAVEVPAPAAVLGGPEPLMQATAWLNAYFHQPEAIEEFPVPALHHPVFQQESFTRQVLWKLLKVVKFGEVISYQQLAALAGNPAATAAVKTALSGNPVPILIPCHRVVSSSGAVGGYEGGLAVKEWLLAHEGHRLGKPGLG | soluble |
| MGESSGGGNSRQLQFSRKAGKGVVKTIHEYRSKPLRVGRKGEWRPAISDENRKLIRGVAEIIKIRPINVPDYAVVNPLGIMRQAYGTMVGGIANEPWSLESRKTIEEVVFLPIMDGEVRKGQLEHHHHHH | not soluble |
| MSATSATNFAVQTHPVKAPDEEYFFEGAEKLLELWFCSSTQNETRSLRIIPREEIDAMLDIARCKILHSKHNESIDSYVLSESSLFISDNRVILKTCGTTRLLAALPVIMQLAGAYAGLDQVQSVYYSRKNFLRPDLQPSLHKNFDAEVEYLDSFFVDGHAYCLGSLKQDRWYLYTFHREVEFPAHKQPDHTLEILMSDLDEEVLHKFTKDYAVDGNDCFMRAGIDKIIPAGADVHDELFDPCGYSMNAYMNDTDQYATIHVTPEKAFSFASFETNQDLVCLYSQTRKVLQCFRPNKILMTVFANDISEKGKDAQQQLWDRELPGYRRTNVQFVRLETETLVYAHFVRKASTGQDSSSSDEDDGERSD | not soluble |
| MNHAQSLYPLIERALLCPVLEDKLALAERLHRDWRAGMLARLASPAPYPLPEPGRPERPELVHPARVPKRSLSTRRGHGALLHAIAHIEFNAVNLALDAAWRFRDMPDEFVDDWLKVAAEEAGHFRLLQGRLAELGFSYGDFPAHDGLWAMCRKTDRDAMVRMALVPRVLEARGLDVTPGIQRRLAGIGDHASVAVLDVILRDEVGHVLIGNRWFVRLCRERGLEPQATFRGLLEQHAMQLHPGDYNLDARAAAGFFADELEALARLTESVSDGRLEHHHHHH | soluble |
| MSLSRIRKAPAGILGFPVAPFNTQGTLEEEALFQNIEFLLNEGLEAIFIACGSGEFQSLSQKEYEQMVEVAVSAAGGKVPVYTGVGGNLSTALDWAQLSEKKGADGYLILPPYLVHGEQEGLYQYAKTIIESTDLNAILYQRDNAVLSVEQIKRLTECEQLVGVKDGVGNMDLNINLVYTIGDRLGWLNGMPMAEVTMPAYLPIGFHSYSSAISNYIPHISRMFYDALKNGNDELVKELYRHVILPINDIRKQRKGYAVSLIKAGMEIMGLNVRNTARPPVGPVEKDHYQQLEAILKQPADRFPKKEGHHHHHH | soluble |
| MGSDKIHHHHHHMYVAVKGGEQAILNTHKLISETRRGDPEIAELTLPQISEQLGLAVDRVMAEGSVYDRQLAALALKQAQGDAMEAIFLLRAYRTTLPRIAVSEPIDTSRMAIRRRISATFKDLPGGQVLGPTYDYTHRLLDFALTAEGLERVRAVPAAEPLDQSVPRVVDLLDDEGVIQEENDDDQEEVFDLTRQPKSFPAGRDQRLQNLARADEGFLLGLAYSTTRGYGFNHPFVGELRLGEVTVEIVPEELGFPIVVAEVTVTECQMINSFRGSAEQPPQFTRGYGLTFGHNEGKAMSMSLVDRAMRARELGEDVRYPAQDEEFVLSHTDNVEANGLVTHYKLPHYVDFQAELQLVRQLRAEYEAARAAAQTREAAE | not soluble |
| MATKKTFTDETYFKLSEAVYQDGTLNSKKINIELSDRTKSNWKVVSKLNDRATNTQAFAVIPEEKGKDGKIYYNHNNMIFVYRGTKESKDFGSDIINVFAGRNSRTSLDRKSKNPFQVSKEWTEEVLKEFNPKNPTSTGHSLGGALSHYNSILYDFNATTYAAPNIYQLLPEDKQKKVRDGFYNNSIIDFTHDDDMIGTFDQFSSPIIGSQYIAERNNVKVGAKGLFGAIPGHYNETFEGCFSSDGTMKLKVDVDSIIKHAQDIDDIIQSLQTNNADLENLEEKLQIGSKKIQNQLEEEIRIGGAYSELTTWDIDDVLTELCTKYKNGVYCFYNPNEFEKYYEMNHQTRRLLKNFQIELIDAAQSFRETDTRLGKWISNNN | not soluble |
| MSVDYPRDLIGYGSNPPHPHWPGKARIALSFVLNYEEGGERNILHGDKESEAFLSEMVSAQPLQGERNMSMESLYEYGSRAGVWRILKLFKAFDIPLTIFAVAMAAQRHPDVIRAMVAAGHEICSHGYRWIDYQYMDEAQEREHMLEAIRILTELTGERPLGWYTGRTGPNTRRLVMEEGGFLYDCDTYDDDLPYWEPNNPTGKPHLVIPYTLDTNDMRFTQVQGFNKGDDFFEYLKDAFDVLYAEGAEAPKMLSIGLHCRLIGRPARLAALQRFIEYAKSHEQVWFTRRVDIARHWHATHPYTGAAK | soluble |
| MAQENPLWMRHCAISPDGTTIAFTYKGDIFTVPVSGGKATQITTNPAFDTTPIWSPDSKQIAFASDRMGSMDVFIVSKDGGEPRRLTTFSGGETPVAFTDAGHILFTADIMPSTEDAGFPSNGQFQQIYQIPVSGGRPVMFSSMPMECISINKEGTILYQDKKGYEDYWRKHQKSPIARDIWMLRPGQTPRYEKQTTFIGEDREPVWAPDGKSFYYLSEENGTFNVYQRTPGSDTSKQVTHHKQHPVRFLEHHHHHH | not soluble |
| MKSSVEKLSETRVKLNVEVPFEELKPEIDQAYKALAQQITIPGFRRGKAPRQLIDARIGRGAVLEQVINDMLPTRYQQVVEENELVVLGQPHIDITKLEDNEVVEFTAEVDVRPEITVPDFSAFAVEVPALKSNDEAIDAQIDKLRERFGELKDTKRKLKTDDFAIIDIEAAIDGEKLEEATTEGMSYQVGAGDLIDGLDTALRGLKAGESAEFTTTLKAGEHEGKEAAVTVTVQQTKERKLPELDEEFVQTASEFDTVEELRESIAEQVAEQAKAEQATAIRDEVLKAALAEATFELPEGVVEDQIHAQLHQLLNQVGGDEAALNAALEAQGTSREQFDADNRKNSEEAVRTQLFLDALAEQEQPEVSQQELTDHILFTAQSYGMDPNQFITQLQQSGQIGNLFSDVRRGKALAAAICRVSVKDDEGKAVDPSEYFGEEEESAEESE | soluble |
| MEEEILSFVSIQSHVSSAGEKPIHVLDENPKFSRLHPSPSNIDSGEDSTSINKSNMESYGFSPVKIIEALIRETTAQGNVNMQRKSLFFPTQISDLFPAILNSKRKTG | soluble |
| MGSDKIHHHHHHMTGQNPAPDEIVIDTGNPHPARMYDWFLGGKDNYPVDEEMGRQLLALDPRVPVMAKVNRAFMHRATRWLAMNGVRQFLDIGTGIPTEPNLHQIAQQVAPESRVVYCDNDPIVLAHAAALLRSTPEGVTEYVQADVRDPDTIVEQAGKVLDFSKPVALSLVALLHFVSDEDGAYELVDRLLAEVPSGSYLMLSHATADFTPKKSEEAGELYKARSLTLALRSRDEVARFFRDLELVEPGVEVPDKWRPELGEPVPGQDDEPIPGYAAVGRKP | not soluble |
| MSSDAISLRAAGPGDLPGLLELYQVLNPSDPELTTQEAGAVFAAMLAQPGLTIFVATENGKPVATATLLIVPNLTRAARPYAFIENVVTLEARRGRGYGRTVVRHAIETAFGANCYKVMLLTGRHDPAVHAFYESCGFVQNKTGFQIRQD | soluble |
| MAFDDLRSFLQALDDHGQLLKISEEVNAEPDLAAAANATGRIGDGAPALWFDNIRGFTDARVAMNTIGSWQNHAISLGLPPNTPVKKQIDEFIRRWDNFPIAPERRANPAWAQNTVDGEEINLFDILPLFRLNDGDGGFYLDKACVVSRDPLDPDNFGKQNVGIYRMEVKGKRKLGLQPVPMHDIALHLHKAEERGEDLPIAITLGNDPIITLMGATPLKYDQSEYEMAGALRESPYPIATAPLTGFDVPWGSEVILEGVIESRKREIEGPFGEFTGHYSGGRNMTVVRIDKVSYRSKPIFESLYLGMPWTEIDYLLEHHHHHH | not soluble |

From the DeepSol protein solubility set
